Test results published in paper PMC5014153, “Overexpression of an Arabidopsis cysteine-rich receptor-like protein kinase, CRK5, enhances abscisic acid sensitivity and confers drought tolerance”.

Tests used:
Assay in all cases: EMSA; 25 mM Hepes pH 8.0, 40 mM KCl, 5 mM MgCl2, 1 mM DTT, 1 mM EDTA, 8% glycerol; 50 ng protein, 20 fmol probe; 30 min at 28 C; native PAGE
6xHis-WRKY40 = molecular target: T1, 6xHis-WRKY40 (Arabidopsis thaliana, UniProt Q9SAH7 1-302); settings: protein: recombinant, tags: N-terminal Trx, HRV 3C site (pET48b), label: 5' biotin on each strand, blunt
T1 sequence: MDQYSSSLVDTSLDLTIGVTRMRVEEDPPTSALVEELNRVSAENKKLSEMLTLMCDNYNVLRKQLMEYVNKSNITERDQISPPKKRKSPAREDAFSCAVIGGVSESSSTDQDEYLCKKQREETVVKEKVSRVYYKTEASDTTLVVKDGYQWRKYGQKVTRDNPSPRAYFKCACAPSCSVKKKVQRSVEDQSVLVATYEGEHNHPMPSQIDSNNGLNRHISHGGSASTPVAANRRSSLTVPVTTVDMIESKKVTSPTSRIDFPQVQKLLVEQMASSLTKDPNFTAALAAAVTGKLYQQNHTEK

6xHis-WRKY18 = 6xHis-WRKY18 (Arabidopsis thaliana, UniProt Q9C5T4 1-310); settings: protein: recombinant, tags: N-terminal Trx, HRV 3C site (pET48b), chain copies: 2, label: 5' biotin on each strand, blunt
Chain of 6xHis-WRKY18 (Q9C5T4 whole entry): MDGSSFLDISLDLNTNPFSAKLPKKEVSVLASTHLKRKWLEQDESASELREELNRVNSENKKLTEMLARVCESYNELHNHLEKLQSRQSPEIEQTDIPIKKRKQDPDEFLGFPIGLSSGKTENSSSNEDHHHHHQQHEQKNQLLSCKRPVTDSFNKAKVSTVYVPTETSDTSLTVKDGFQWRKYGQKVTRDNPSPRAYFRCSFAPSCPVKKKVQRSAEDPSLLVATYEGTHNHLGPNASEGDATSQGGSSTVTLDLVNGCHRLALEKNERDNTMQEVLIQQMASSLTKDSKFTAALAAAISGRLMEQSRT

6xHis-WRKY60 = 6xHis-WRKY60 (Arabidopsis thaliana, UniProt Q9SK33 1-271); settings: protein: recombinant, tags: N-terminal Trx, HRV 3C site (pET48b), label: 5' biotin on each strand, blunt
Chain of 6xHis-WRKY60 (Q9SK33 whole entry): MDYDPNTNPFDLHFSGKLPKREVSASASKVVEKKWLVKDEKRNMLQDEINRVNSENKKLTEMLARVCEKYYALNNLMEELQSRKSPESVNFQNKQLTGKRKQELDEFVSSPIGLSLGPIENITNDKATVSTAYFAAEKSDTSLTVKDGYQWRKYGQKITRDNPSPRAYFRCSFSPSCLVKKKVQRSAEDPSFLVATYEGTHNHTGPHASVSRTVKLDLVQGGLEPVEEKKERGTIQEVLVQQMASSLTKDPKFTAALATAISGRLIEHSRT

B1: ProCRK5-1 (dsDNA)
DNA 1: TTGATGTTACTCGTCTAGTTGACCTTGACTTGCAAGATATTGTATTATTTTACAAAAACCAAAATTTGACTGGCTTGGCT
DNA 2: AGCCAAGCCAGTCAAATTTTGGTTTTTGTAAAATAATACAATATCTTGCAAGTCAAGGTCAACTAGACGAGTAACATCAA
**Q.** Which results are given for B1?
**A.** binding result (6xHis-WRKY40): binds; binding result (6xHis-WRKY18): binds; binding result (6xHis-WRKY60): no binding

B2: ProCRK5-1 mW1 (dsDNA)
DNA 1: TTGATGTTACTCGTCTAGTTGACCTTGACTTGCAAGATATTGTATTATTTTACAAAAACCAAAATTTAAATGGCTTGGCT
DNA 2: AGCCAAGCCATTTAAATTTTGGTTTTTGTAAAATAATACAATATCTTGCAAGTCAAGGTCAACTAGACGAGTAACATCAA
**Q.** What does the source list for B2?
**A.** binding result (6xHis-WRKY40): binds; binding result (6xHis-WRKY18): binds
